Measured values reported in patent US20260207757A1 (IGF ONCOLOGY, published 2026).

Experiments:
dihydrofolate reductase = test: cell-based or functional assay
[1] = molecular target: T1, type 1 IGF receptor (IGF-1R) (human, UniProt P08069 31-1367); test: competition binding to IGF receptors against radioactive wild type IGF
T1 construct: whole, on cells; also called IGF-1 receptor; CD221
Experimental: 200 ul of each of these was mixed rapidly with 1.8 ml of refold buffer. Refold buffer was 1.4 M urea, 100 mM glycine, 0.5 M NaCl, 19% ethanol, 0.5 mM GSSG, 4 mM GSH, pH 9.5.

T1 sequence (P08069 31-1367): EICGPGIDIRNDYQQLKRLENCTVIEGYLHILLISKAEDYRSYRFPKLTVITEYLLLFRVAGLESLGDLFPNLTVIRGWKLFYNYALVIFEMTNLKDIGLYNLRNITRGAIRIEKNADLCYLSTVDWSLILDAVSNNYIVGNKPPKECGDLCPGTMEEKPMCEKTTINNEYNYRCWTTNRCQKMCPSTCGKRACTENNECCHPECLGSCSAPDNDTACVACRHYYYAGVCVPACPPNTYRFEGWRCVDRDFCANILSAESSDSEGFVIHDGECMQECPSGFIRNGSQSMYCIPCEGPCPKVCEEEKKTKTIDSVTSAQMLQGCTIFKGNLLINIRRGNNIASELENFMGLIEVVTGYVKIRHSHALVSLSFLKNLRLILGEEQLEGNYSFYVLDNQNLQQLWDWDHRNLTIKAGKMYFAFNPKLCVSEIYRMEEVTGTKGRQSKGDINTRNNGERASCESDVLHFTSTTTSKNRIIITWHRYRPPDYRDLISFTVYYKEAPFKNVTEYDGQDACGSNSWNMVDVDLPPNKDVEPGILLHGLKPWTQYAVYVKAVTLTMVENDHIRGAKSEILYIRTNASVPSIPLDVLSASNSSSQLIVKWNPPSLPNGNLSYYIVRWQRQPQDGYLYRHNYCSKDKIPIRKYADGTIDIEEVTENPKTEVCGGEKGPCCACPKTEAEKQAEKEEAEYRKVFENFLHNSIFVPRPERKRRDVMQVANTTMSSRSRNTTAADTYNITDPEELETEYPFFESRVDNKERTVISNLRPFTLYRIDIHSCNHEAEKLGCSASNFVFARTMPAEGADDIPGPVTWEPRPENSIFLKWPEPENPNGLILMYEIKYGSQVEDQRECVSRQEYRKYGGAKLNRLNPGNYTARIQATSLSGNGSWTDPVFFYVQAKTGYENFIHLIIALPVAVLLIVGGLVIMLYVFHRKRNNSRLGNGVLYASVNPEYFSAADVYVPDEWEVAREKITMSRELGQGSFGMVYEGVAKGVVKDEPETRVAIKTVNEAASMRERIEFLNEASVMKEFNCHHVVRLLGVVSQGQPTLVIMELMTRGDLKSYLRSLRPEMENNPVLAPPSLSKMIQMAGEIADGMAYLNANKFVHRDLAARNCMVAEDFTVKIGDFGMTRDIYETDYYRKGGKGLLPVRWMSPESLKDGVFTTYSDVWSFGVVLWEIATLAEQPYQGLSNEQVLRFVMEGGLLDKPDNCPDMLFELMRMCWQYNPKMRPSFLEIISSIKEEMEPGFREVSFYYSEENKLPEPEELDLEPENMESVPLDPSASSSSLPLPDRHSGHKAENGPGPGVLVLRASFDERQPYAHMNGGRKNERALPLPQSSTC

Binder	IC50 (inhibition of dihydrofolate reductase activity) (dihydrofolate reductase)	Kd [1]
LR3IGF-MTX (ligand, methotrexate on amino groups (3 lysine side chains and the N-terminal amino group available), MTX:protein ratio of 2.8) MFPAMPLSSLFVNGPRTLCGALVDALQFVCGDRGFYFNKPTGYGSSSRRAPQTGIVDECCFRSCDLRRLEMYCAPLKPAKSEA	99 nEq/L	–
403IGF (ligand, T0001 describes it as His6-IGF; also called His6-IGF) MTSGHHHHHHSAGVNGFVNQHLCGSHLVEALYLVCGDRGFYFNKPTGYGSSSRRAPQTGIVDECCFRSCDLRRLEMYCAPLKPAKSA	–	~2 nM
764IGF (ligand, also called His6-K5-IGF132) MVKGKHHHHHHNGKGKSKFVNQHLCGSHLVEALYLVCGDRGFYFNKPTGYGSSSRRAPQTGIVDECCFRSCDLRRLEMYCAPLKPAKSA	–	~100 nM
785IGF (ligand, also called mutTrx-IGF132) MVKQIESKTAFQEALDAAGDKLVVVDFSATWCGHCKMIKPFFHSLSEKYSNVIFLEVDVDDSQDVASESEVKSMPTFQFFKKGQKVGEFSGANKEKLEATINELVGSKSGHHHHHHSAKGFVNQHLCGSHLVEALYLVCGDRGFYFNKPTGYGSSSRRAPQTGIVDECCFRSCDLRRLEMYCAPLKPAKSA	–	~40 nM
